Holding throughout (assay): Biacore (SPR), tau peptide
Background: Surface plasmon resonance follows binding to a sensor surface in real time, without labels.

In assay [1] the target is T1, Tau379-408 [P-Ser396/404] (phosphoserine at Ser396 and Ser404 (Tau numbering, SEQ ID NO:1)).
T1 construct: 30 amino acid synthetic peptide; also called Tau 379-408 (PSer396/PSer404)

In the next assay the target is T2, Tau379-408.
T2 construct: 30 amino acid synthetic peptide, not phosphorylated; also called Tau 379-408 (Ser396/Ser404)
T2 sequence (peptide, as listed by the source): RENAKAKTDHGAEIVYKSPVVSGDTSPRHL

Another assay deals with Tau386-408 [P-Ser404] (phosphoserine at Ser404 of Tau (position 19 of SEQ ID NO:7)).
Sequence of Tau386-408 [P-Ser404] (phosphoserine at Ser404 of Tau (position 19 of SEQ ID NO:7)) (peptide, as listed by the source): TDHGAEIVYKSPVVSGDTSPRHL
For assay [2], the target named is T3, Tau386-408 [P-Ser396/404] (phosphoserine at positions 11 and 19 (Ser396 and Ser404 of Tau)).
T3 construct: 23 amino acid peptide; also called Tau 386-408 (PSer396/PSer404)

B1: Antibody 4E6G7 (antibody, V domains shown)
VH: VQLQQSGAELVQPGASVKLSCTASGFNIKDTSMHWVRQRPEQGLEWIGRIAPANGNTKYDPKFQGKATITTDTSSNTAYLQLSSLTSEDTAVYYCSGSGNYDWGQGTTLTVS
VL: DIQMNQSPSSLSASLGDTITISCHASQNINVWLSWYQQKPGNIPKLLIFEASTLYTGVPSRFSGSGSGTGFTLTISSLQPEDIATYYCQQGQSYPWTFGGGTKLEIKR
notes: constant regions are not
Consider B1, for which the Kd (commonly the free concentration of one partner at which half of the binding sites on the other are occupied at equilibrium, for simple one-to-one binding) in assay [1] came out at 271 nM; with Tau379-408, 212 nM; with Tau386-408 [P-Ser404] it was 278 nM; in assay [2], 469 nM.

(Values after patent publication US20180312608A1 (NEW YORK UNIVERSITY, published 2018).)
